Source: the Human Domainome abundance scans (Beltran et al. 2025)
± gives the uncertainty stated by the source.

B1: Zinc finger MYM-type protein 2, residues 463 to 506; numbered along this chain, Q9UBW7 (parent)
chain: IMNCCEQCGEYLPSKGAGNNVLVIDGQQKRFCCQSCVSEYKQVG

Variants of: B1
Assay: abundance fitness (aPCA) (normalised: wild type 0, dead -1); higher = more abundant; growth selection in yeast, the domain comes from the species named
Details: Homo sapiens

Abundance fitness, by site and new letter:
N20: L -0.103 ± 0.1; C 0 ± 0.11; A -0.037 ± 0.11; R -0.285 ± 0.086
V21: A -0.065 ± 0.098; E 0.128 ± 0.092; N -0.397 ± 0.47; P -0.402 ± 0.17; K 0.395 ± 0.35; Q -0.172 ± 0.13; C -0.302 ± 0.23; W -0.02 ± 0.11; S -0.153 ± 0.1; M -0.103 ± 0.11; L -0.162 ± 0.11; R -0.264 ± 0.086; G -0.129 ± 0.088; D -0.014 ± 0.13
Y11: L 0.034 ± 0.1; M -0.099 ± 0.12; V 0.117 ± 0.077; W -0.237 ± 0.075; Q 0.313 ± 0.11; S 0.252 ± 0.099; I -0.145 ± 0.1; T 0.319 ± 0.098; R 0.219 ± 0.074; P 0.144 ± 0.088; K 0.361 ± 0.13; N 0.28 ± 0.097
G16: Q 0.07 ± 0.1; S -0.047 ± 0.12; P -0.175 ± 0.14; V -0.272 ± 0.14; C -0.113 ± 0.085; A -0.06 ± 0.1; H -0.249 ± 0.099; W -0.319 ± 0.093; L -0.214 ± 0.08; R -0.562 ± 0.078; M 0.007 ± 0.29; T 0.202 ± 0.18; E 0.136 ± 0.11
K29: H 0.051 ± 0.086; G -0.234 ± 0.082; M -0.018 ± 0.12; S -0.329 ± 0.11; I -0.241 ± 0.14; C -0.752 ± 0.26; T -0.313 ± 0.14; Y -0.026 ± 0.15; E -0.231 ± 0.14; V -0.078 ± 0.082; F -0.17 ± 0.089; P -0.499 ± 0.12; R -0.06 ± 0.079; N -0.464 ± 0.21; Q -0.283 ± 0.15; L -0.067 ± 0.085; A -0.235 ± 0.085; W -0.432 ± 0.086
K15: W -0.124 ± 0.093; V 0.011 ± 0.1; G 0.103 ± 0.075; A 0.089 ± 0.077; L -0.094 ± 0.11; D 0.229 ± 0.18; M 0.3 ± 0.19; H 0.119 ± 0.15; C -0.012 ± 0.092; Y 0.07 ± 0.21; S 0.114 ± 0.13; P 0.189 ± 0.096
C33: D 0.051 ± 0.11; F -0.517 ± 0.18; L -0.385 ± 0.097; N -0.164 ± 0.18; S 0.024 ± 0.093; E 0.008 ± 0.082; P -0.342 ± 0.09; Q -0.086 ± 0.13; H -0.09 ± 0.12; A -0.017 ± 0.093; R -0.121 ± 0.089; G -0.023 ± 0.069; T -0.031 ± 0.11; M -0.201 ± 0.12
G18: L -0.432 ± 0.17; P 0.007 ± 0.19; C -0.247 ± 0.15; D 0.59 ± 0.5; A 0.015 ± 0.13; T -0.377 ± 0.17; E 0.302 ± 0.12; M -0.214 ± 0.13; W -0.197 ± 0.092; S -0.347 ± 0.18
Q28: L -0.346 ± 0.12; M -0.123 ± 0.15; A -0.133 ± 0.086; G -0.239 ± 0.072; P -0.065 ± 0.11; Y -0.305 ± 0.16; T -0.032 ± 0.1; N -0.29 ± 0.18; W -0.405 ± 0.094; V -0.169 ± 0.099; C -0.47 ± 0.15; H 0.117 ± 0.2; K -0.301 ± 0.18; D 0.189 ± 0.22; I -0.038 ± 0.33
Q34: F -0.039 ± 0.13; K -0.213 ± 0.13; H 0.004 ± 0.13; A 0.061 ± 0.075; G -0.017 ± 0.072; E 0.087 ± 0.12; L -0.223 ± 0.097; D 0.013 ± 0.12; C -0.113 ± 0.11; I -0.448 ± 0.21
S14: K -0.283 ± 0.16; W -0.454 ± 0.092; C -0.072 ± 0.16; R -0.456 ± 0.089; G -0.098 ± 0.079; M -0.361 ± 0.12; Y -0.802 ± 0.33; Q -0.123 ± 0.12; F -0.548 ± 0.18; E 0.13 ± 0.19; P 0.33 ± 0.22; L -0.107 ± 0.076; T -0.09 ± 0.12; D 0.241 ± 0.13
L22: I -0.142 ± 0.18; F -0.184 ± 0.35; E 0.015 ± 0.1; S -0.164 ± 0.13; A -0.072 ± 0.088; Y 0.165 ± 0.14; Q -0.057 ± 0.13; W -0.187 ± 0.13; G -0.132 ± 0.068; N -0.163 ± 0.41; C -0.258 ± 0.13; R -0.136 ± 0.083; D 0.001 ± 0.17; P -0.059 ± 0.17; K -0.073 ± 0.12; V -0.016 ± 0.09
F31: L -0.248 ± 0.083; K -0.719 ± 0.27; R -0.366 ± 0.07; S -0.231 ± 0.099; A -0.175 ± 0.074; Y -0.144 ± 0.12; V -0.373 ± 0.081; M -0.267 ± 0.075; H -0.273 ± 0.16; G -0.185 ± 0.087; W -0.498 ± 0.092; N -0.392 ± 0.37; Q -0.119 ± 0.097; P -0.223 ± 0.094; D -0.167 ± 0.096
